Usually EC50 stands for the concentration that produces a half-maximal response. High values mean weaker potency, low ones greater potency.

In this test the target is T1, mouse GPNMB endogenously expressed on B16F10 cells (mouse, UniProt Q99P91 23-574).
T1 construct: whole, on cells; also called moGPNMB
T1 sequence (looked up): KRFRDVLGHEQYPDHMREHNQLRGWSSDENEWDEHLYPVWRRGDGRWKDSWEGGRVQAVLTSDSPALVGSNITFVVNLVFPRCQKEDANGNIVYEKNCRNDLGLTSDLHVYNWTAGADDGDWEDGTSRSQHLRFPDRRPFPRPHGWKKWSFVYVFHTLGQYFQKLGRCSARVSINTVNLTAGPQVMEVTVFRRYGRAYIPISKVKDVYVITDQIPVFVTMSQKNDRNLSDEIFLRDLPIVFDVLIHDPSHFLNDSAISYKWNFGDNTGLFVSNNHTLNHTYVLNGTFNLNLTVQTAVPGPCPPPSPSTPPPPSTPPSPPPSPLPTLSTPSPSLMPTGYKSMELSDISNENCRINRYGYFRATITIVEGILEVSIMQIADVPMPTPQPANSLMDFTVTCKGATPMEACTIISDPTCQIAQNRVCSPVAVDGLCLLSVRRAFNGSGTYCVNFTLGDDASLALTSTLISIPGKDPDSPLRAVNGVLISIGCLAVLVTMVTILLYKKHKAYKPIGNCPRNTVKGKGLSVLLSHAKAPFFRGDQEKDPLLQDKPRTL
Kind of test: FACS titration, B16F10 cells. On the procedure:
Cell-based binding measurements were also performed to measure the apparent affinities of anti-GPNMB antibodies of the present disclosure to cell-surface expressed GPNMB. Serial dilutions of the monoclonal anti-GPNMB antibodies were added to 100,000 Freestyle293-huGPNMB+ or B16F10 cells and allowed to achieve binding equilibrium at 4° C. After addition of fluorescently labeled secondary antibody and brief washing steps, MFI values as a function of titrated antibody concentration was recorded via FACS analysis. Curves were fit using nonlinear regression analysis with Graphpad Prism 6 software.

B1: anti-GPNMB antibody GPN-65 (antibody, human IgG1, V domains shown)
VH: QLQLQQSGTEVVKPGASVKIPCKASGYAFSSYWMNWVKQRPGKGLEWIGQIYPGDGDTNDNGKFEGKATLTVDKSSNTAYIQLSSLTSEDSAVYFCARSPLHLRGSMDYWGQGTSVTVSS
VL: SIVMTQTPKFLLVSAGDRVTITCKASQSVSNDVAWFQQKPGQSPELLIYSASNRYTGVPDRFTGSGYGTDFTFTISTVQAEDLAVYFCQQNYYSPFTFGGGTRLEIK
notes: chimeric
Molecule B1 yielded an EC50 of 3.23 nM.

B2: anti-GPNMB antibody GPN-42 (antibody, human IgG1, V domains shown)
VH: DVKLVESGEDLVKPGGSLKLSCAASGFTFSSYAMSWVRQTPEKRLEWVAYISSGGDYIYYADTVKGRFTISRDNARNTLYLQMSSLKSEDTAMYYCTRDRYYDYDVRDYYTMDYWGQGTSVTVSS
VL: DVMMTQTPLSLPVSLGDQASISCRSSQSLVHSNGNTYLHWFLQKPGQSPKLLIFRVSNRFSGVPDRFSGRGSGTDFTLKISRVEAEDLGVYFCSQTTHVPRTFGGGTTLEIK
notes: chimeric
As for B2, the response was half-maximal at 76.5 nM (EC50).

Source of the values: patent US20250270343A1 (Alector, published 2025).
